Measurements: the supplement of paper PMC7877785
± gives the uncertainty stated by the source.

Test: self-splicing fitness, log relative to wild type (ln ratio); higher = more splicing; Tetrahymena group I intron in knt gene, E. coli kanamycin selection, DiMSum; sequences stand for … in CUCUCU…GGAGGGAAAAGUUAUCAGGCAUGCACCUGGUAGCUAGUCUUUAAACCAAUAGAUUGCAUCGGUUUAAAAGGCAAGACCGUCAAAUUGCGGGAAAGGGGUCAACAGCCGUUCAGUACCAAGUCUCAGGGGAAACUUUGAGAUGGCCUUGCAAAGGGUAUGGUAAUAAGCUGACGGACAUGGUCCUAACCACGCAGCCAAGUCCUAAGUCAACAGAUCUUCUGUUGAUAUGGAUGCAGUUCACAGACUAAAUGUCGGUCGGGGAAGAUGUAUUCUUCUCAUAAGAUAUAGUCGGACCUCUCCUUAAUGGGAGCUAGCGGAUGAAGUGAUGCAACACUGGAGCCGCUGGGAACUAAUUUGUAUGCGAAAGUAUAUUGAUUAGUUUUGGAGUACUCGUGGUCG
How it was run: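 DiMSum derived fitness as the error-weighted combination of fold changes across replicates, kanamycin versus no kanamycin, normalised to wild type. E. coli BL21(DE3) held the library, which randomised all eight P1ex-region intron nucleotides within the knt kanamycin-resistance gene on pET-22b(+). Six replicate transformations grew overnight at 37°C or 30°C on LB agar with or without 25 μg/mL kanamycin, also containing 100 μg/mL carbenicillin, 50 μM IPTG and 0.2% rhamnose, and pooled colonies were amplicon-sequenced on an Illumina HiSeq 2500.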

Sequence | self-splicing fitness (ln) (30 °C) | self-splicing fitness (ln) (37 °C)
CUAGAGCAAUAUUACGUCAU | -4.42 ± 0.28 | -2.58 ± 0.18
CUAGAGCAAUAUUACGUCGU | -3.73 ± 0.42 | –
CUAGAGCAAUAUUACGUCUA | -1.15 ± 0.12 | -0.248 ± 0.18
CUAGAGCAAUAUUACGUGAG | -0.395 ± 0.074 | 0.0704 ± 0.095
CUAGAGCAAUAUUACGUUGU | -3.77 ± 0.2 | -2.5 ± 0.22
CUAGAGCAAUAUUACGUUUA | -4.4 ± 0.24 | -0.83 ± 0.17
CUAUAGCAAUAUUACGACAC | -2.95 ± 0.34 | -1.88 ± 0.28
CUAUAGCAAUAUUACGAGGA | -3.62 ± 0.41 | -1.73 ± 0.31
CUAUAGCAAUAUUACGAGUG | -0.752 ± 0.071 | 0.361 ± 0.1
CUAUAGCAAUAUUACGAGUU | -3.04 ± 0.16 | -0.864 ± 0.18
CUAUAGCAAUAUUACGAUAA | -1.1 ± 0.11 | -0.839 ± 0.17
CUAUAGCAAUAUUACGCAAG | -3.11 ± 0.2 | -2.22 ± 0.18
CUAUAGCAAUAUUACGCAUU | -5.27 ± 0.38 | -2.95 ± 0.31
CUAUAGCAAUAUUACGCCGC | – | -2.27 ± 0.41
CUAUAGCAAUAUUACGCGGA | -1.13 ± 0.49 | –
CUAUAGCAAUAUUACGGAGG | -2.7 ± 0.17 | 0.224 ± 0.16
CUAUAGCAAUAUUACGGAUA | – | -2.24 ± 0.37
CUAUAGCAAUAUUACGGCAA | -3.31 ± 0.29 | -2.63 ± 0.45
CUAUAGCAAUAUUACGGCAU | -3.11 ± 0.25 | -2.37 ± 0.24
CUAUAGCAAUAUUACGGCUC | -3.46 ± 0.36 | -2.47 ± 0.48

Sequence | self-splicing fitness (ln) (30 °C) | self-splicing fitness (ln) (37 °C)
CUAUAGCAAUAUUACGGGCU | -2.63 ± 0.19 | -3.38 ± 0.39
CUAUAGCAAUAUUACGUGCA | -3.24 ± 0.18 | -2.37 ± 0.19
CUAUAGCAAUAUUACGUGUU | -3.74 ± 0.16 | -3.15 ± 0.27
CUAUAGCAAUAUUACGUUCA | -2.87 ± 0.24 | -2.93 ± 0.35
CUCAAGCAAUAUUACGACCA | – | -0.985 ± 0.26
CUCAAGCAAUAUUACGAGCA | – | -2.49 ± 0.33
CUCAAGCAAUAUUACGAGUU | -3.34 ± 0.15 | -2.52 ± 0.15
CUCAAGCAAUAUUACGAUAU | -2.97 ± 0.14 | -1.61 ± 0.14
CUCAAGCAAUAUUACGCAGG | -2.99 ± 0.23 | -2.84 ± 0.31
CUCAAGCAAUAUUACGCAUC | -3.63 ± 0.23 | -2.3 ± 0.25
CUCAAGCAAUAUUACGGCAG | -2.26 ± 0.068 | -0.745 ± 0.092
CUCAAGCAAUAUUACGGCGU | -2.09 ± 0.23 | -2.39 ± 0.46
CUCAAGCAAUAUUACGGGCU | -4.09 ± 0.27 | -3 ± 0.26
CUCAAGCAAUAUUACGGGGU | -3.4 ± 0.15 | -3.44 ± 0.19
CUCAAGCAAUAUUACGGGUU | -3.49 ± 0.17 | -1.4 ± 0.13
CUCAAGCAAUAUUACGUAUC | -2.94 ± 0.14 | -1.79 ± 0.14
CUCAAGCAAUAUUACGUCGC | -4.2 ± 0.39 | -2.27 ± 0.33
CUCAAGCAAUAUUACGUCUA | -3.15 ± 0.16 | -2.07 ± 0.14
CUCAAGCAAUAUUACGUCUG | -4.24 ± 0.28 | -1.36 ± 0.17
CUCAAGCAAUAUUACGUUAC | -4.46 ± 0.31 | -3.47 ± 0.29
